For assay [1], the target named is T1, human VEGF165 protein (human).
T1 construct: human VEGF-A, the 165-residue isoform VEGF165; also called VEGF dimer; source: bought: Sino Biological Inc. (11066-HNAH)
Description: ELISA; plates coated with recombinant human PD-L1 or VEGF165 (100 ng/well, carbonate buffer); antibody 1 h at room temperature; detected with HRP goat anti-human Fc, TMB, 450 nm. Conditions: both partners purified. A general note: ELISA stands for enzyme-linked immunosorbent assay.

Assay [2] has as its target T1, human VEGF165 protein. Description: SPR; Biacore 8K, 25 °C; antibody or fusion protein captured by anti-human IgG (Fc) on a CM5 chip; analyte (VEGF165 from 3 nM or PD-L1 from 50 nM, 2-fold titrations) injected 120 s, dissociation 1800 s, 30 μL/min; single-cycle kinetics, 1:1 model; no enhancement step (buffer). Conditions: both partners purified.
Assay [3] addresses T2, human PD-L1 (Homo sapiens (Human)., UniProt Q9NZQ7).
T2 construct: human PD-L1, recombinant; also called PD-L1 monomer; programmed cell death-ligand 1; source: bought: ACRO Biosystems (449-9AWF1-RA)
Description: SPR; as a1, but 10 nM human VEGF165 injected first to saturate VEGF binding by captured HB0025, then PD-L1 as analyte. Conditions: both partners purified. On the technique in general: SPR reads the build-up and loss of mass on a sensor chip optically.

For assay [4], the target named is T2, human PD-L1. Kind of assay: cell-based or functional assay.
The target in assay [5] is T2, human PD-L1. Kind of assay: ELISA; plates coated with recombinant human PD-L1 or VEGF165 (100 ng/well, carbonate buffer); antibody 1 h at room temperature; detected with HRP goat anti-human Fc, TMB, 450 nm. Conditions: both partners purified.
The target of assay [6] is T2, human PD-L1. Kind of assay: SPR; Biacore 8K, 25 °C; antibody or fusion protein captured by anti-human IgG (Fc) on a CM5 chip; analyte (VEGF165 from 3 nM or PD-L1 from 50 nM, 2-fold titrations) injected 120 s, dissociation 1800 s, 30 μL/min; single-cycle kinetics, 1:1 model; no enhancement step (buffer). Conditions: both partners purified.
Assay [7] addresses T2, human PD-L1. Description: SPR; valence: HB0025 (300 RU), HB0023 (250 RU) or HB002.1T (200 RU) captured; 200 nM PD-L1 injected twice for 60 s, then 10 nM VEGF165 twice for 60 s; stoichiometric ratio from response units and molecular weights; running buffer pH 7.4. Conditions: both partners purified.

Consider two molecules from article PMC8678608, “A Novel Bispecific Antibody Targeting PD-L1 and VEGF With Combined Anti-Tumor Activities” (Frontiers in Immunology, 2021).

As usually defined, the EC50 is the midpoint of the concentration-response curve. One may read the Kd as the equilibrium constant for the complex coming apart. As usually defined, the koff is a measure of how fast the partners let go of each other. The term kon denotes the rate constant with which the complex forms. One may read the stoichiometry N as a count of units in the complex or per binding partner.

T2 sequence (Q9NZQ7 19-238): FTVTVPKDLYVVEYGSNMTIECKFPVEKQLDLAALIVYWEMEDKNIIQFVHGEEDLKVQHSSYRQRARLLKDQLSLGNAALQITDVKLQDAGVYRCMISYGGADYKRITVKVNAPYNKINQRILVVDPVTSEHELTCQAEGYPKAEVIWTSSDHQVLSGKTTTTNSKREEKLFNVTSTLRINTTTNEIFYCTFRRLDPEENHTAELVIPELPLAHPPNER

B1: HB002.1T (VEGFR1D2-Ig fusion protein) (Fc fusion)
chain: SDTGRPFVEMYSEIPEIIHMTEGRELVIPCRVTSPNITVTLKKFPLDTLIPDGKRIIWDSRKGFIISNATYKEIGLLTCEATVNGHLYKTNYLTHRQTNTIID
modifications: Fc-dimerised fusion: D2 at the N-terminus of IgG Fc, with Fc and any linker left out. Limits are inferred from HB0025 numbering, assuming HB002.1T has the same D2. N36/N68 and the N99-T100 cleavage …
For the molecule B1, the EC50 with human VEGF165 protein [1] stood at 0.17 nM. Further, in the assay with human VEGF165 protein [2], the Kd was 0.00111 nM, the koff worked out at 5.03e-05 s⁻¹ and the kon was 4.54e+07 M⁻¹ s⁻¹.

B2: HB0025 (anti-PD-L1/VEGFR1D2-Ig fusion protein) (bispecific antibody, V domains shown)
VH: QVQLVQSGAEVKKPGASVKVSCKASGYAFTGYTIHWVRQAPGQRLEWMGWFYPGSGTLKYSEKFQGRVTITRDKSLSTAYMELSSLRSEDTAVYYCARHGTGTLMAMDYWGQGTLVTVSS
VL: DVVMTQTPLSLSVTPGQPASISCKSSQSLANSYGNTYLSWYLHKPGQSPQLLIYGISNRFSGVPDRFSGSGSGTDFTLKISRVEAEDVGVYYCLQGTHQPPTFGQGTKLEIK
notes: soluble extracellular domain 2 of human VEGF receptor 1 (VEGFR1D2); humanized VH of the parent anti-PD-L1 antibody HB0023; human IgG1 heavy constant domains, as in the heavy chain of HB0023; IgG1-like mAb-Trap format; Clinical trial NCT04678908; also called bispecific antibody; BsAb; copies: 2 +
In the assay with human PD-L1 [3], B2 returned a dissociation constant (Kd) of 1.98 nM, a koff of 0.000395 s⁻¹ and a kon of 200000 M⁻¹ s⁻¹. Further, the “EC50 of the recovery of IL-2 secretion in a mixed lymphocyte reaction (DCs and PBMCs, 3.8 pM-25 nM antibody); blocks PD-1/PD-L1” value with human PD-L1 [4] is about 509 pM. For the same molecule, the half-maximal effective concentration (EC50) with human PD-L1 [5] is 0.67 nM. For the same molecule, in the assay with human PD-L1 [6], the Kd stood at 1.76 nM, the koff is 0.00051 s⁻¹ and the kon came to 290000 M⁻¹ s⁻¹. In addition, the “stoichiometry N” value in the assay with human PD-L1 [7] is about 1.7 PD-L1 monomers per HB0025.
